The values that follow come from article PMC2911020.

The target in assay [1] is PapC usher (Escherichia coli) (UniProt P07110). Particulars: cited from earlier work.
The target in assay [2] is PapDG chaperone-adhesin complex (His-tagged PapD, class II PapG), purified and coumarin-labeled (Escherichia coli) (UniProt P15319). Briefly: other fluorescence titration.

For orientation: Kd means the free concentration of one partner at which half of the binding sites on the other are occupied at equilibrium, for simple one-to-one binding. For “PapDG chaperone-subunit complex (from UniProt P15319)”, the Kd in assay [1] was 90 nM.
In assay [2], “PapC usher, wild type, purified, His-tag cleaved off (pDG2) (from UniProt P07110 25-836) (natural protein)” yielded a Kd of 59 nM.
The same measure, in the same setting: in the case of “PapC R652A, purified, His-tag cleaved off (pQY652) (natural protein)” it was 1590 nM.
Consider “PapC F21A, purified, His-tag cleaved off (pQY21) (from UniProt P07110 25-836) (natural protein)”, for which the Kd in assay [2] stood at 62 nM.
